Data as given in the DeepSol protein solubility set.

test: soluble on expression in E. coli; label from the status in PepcDB or PDB records

For “MKHSLPDLPYDYADLEPVISHEIMQLHHQKHHATYVNNLNQIEEKLHEAVSKGNVKEAIALQPALKFNGGGHINHSIFWTNLAKDGGEPSAELLTAIKSDFGSLDNLQKQLSASTVAVQGSGWGWLGYCPKGKILKVATCANQDPLEATTGLVPLFGIDVWEHAYYLQYKNVRPDYVNAIWKIANWKNVSERFAKAQQ”, which “soluble on expression in E. coli” value is on record?
Its value is “soluble”.

For “MKICAVVVTYNRKDLLVECLEALRRQTGPLDAIYIIDNASTDGTPHLLMEGGYIDDPDGSVKNLPDHHGRSLKIVYVRLNENTGGAGGFYKGVRRAFHDEYDWIWLMDDDVEPEEYTLEKLLKASERIPEDVSAVAPVRFFQGSLFISETKTFNFRNPLKHFTYDFITDDDLKEEYFKISAISFEGLLIKREAIERIGFPDKSLFIIADDTDYAIRLRDYGPIYMVSGARLIKKVAAEPDFNWKGFYHLRNVIYLDRKYGENILVRYLRPLRTLIIVTYQCLKYKPSGFKYLLKAFWEGYTLKRGKTVKPGEFLEHHHHHH”, which “soluble on expression in E. coli” value is on record?
The value was “soluble”.

Which “soluble on expression in E. coli” value does the source give for “MKIDILDKGFVELVDVMGNDLSAVRAARVSFDMGLKDEERDRHLIEYLMKHGHETPFEHIVFTFHVKAPIFVARQWFRHRIASYNELSGRYSKLSYEFYIPSPERLEGYKTTIPPERVTEKISEIVDKAYRTYLELIESGVPREVARIVLPLNLYTRFFWTVNARSLMNFLNLRADSHAQWEIQQYALAIARIFKEKCPWTFEAFLKYAYKGDILKEVQV” here?
Its value is “not soluble”.

For “MKIEKTSNFAPINLLYKKKTSFNSRGIFLIIAFNNSSFNLIYKNNNKSYKSTRLNTILRKKNRVIEQVLDKDIIVVPLGGLGEIGMNCMLIGSKKRFILIDCGIMFTDLSHLGIQKVIPDINFLTHIQNLIEGLIITHGHEDHIGAINWVLPILRTDALVYTSRFVYNIISKRIDKQNYLFKKLFRIFDLKKRFQLGPFECEAFRVTHSIPDCCGFVIRSKYGLIVHTGDWKIDEFPLDGEKFDREFLESISKEKVLLMMSDSTNSLSHGRTASEKVVQDSLVSIITNPKIKGRIITTQFASNVFRLYSIKKAADISKKKICFLGTSLNSYLDASLLDGRAPFHPSELVQESELKNIDPDKIIIVTTGSQGEARSTLNLSSLDLSPRLSLNPYDTIIYSAKIIPGNDKKVVRMLNRISSHGCKIIYGNQAKIHTSGHAYEDELKEILKIVKPSYFLPVHGELISLNVHSSIALQNCGIKNTIVMRNGQVLSLESDNQNPLGFKLFNLSGEINLVNHYNTGSSILGSYADIGISDKIKISNEGIILISLEFVRIKESDTYVSFKSKLRISSRGIWIDRGKLNFIIKKLLFNILNKCRTNISIISLEQIISETMNYSCYKINRSNPEIIVYANELTNI”, which “soluble on expression in E. coli” value is on record?
The value was “soluble”.

For “MKIGVLGLQGAVREHVRAIEACGAEAVIVKKSEQLEGLDGLVLPGGESTTMRRLIDRYGLMEPLKQFAAAGKPMFGTCAGLILLAKRIVGYDEPHLGLMDITVERNSFGRQRESFEAELSIKGVGDGFVGVFIRAPHIVEAGDGVDVLATYNDRIVAARQGQFLGCSFHPELTDDHRLMQYFLNMVKEAKMASSLK”, which “soluble on expression in E. coli” value is on record?
The value was “soluble”.

With “MKIKSIEARNISIPLNRPIHNPAFKFTHCKYTIVTVTTDEDITGWSFSFGMHHTKAVVDELAEILVGEEIDTRRLYEKMMRTQAVRWDRGGISMRALSAIDIALWDIVGKSCGLPLYRLMGCYREEIPVYYSGGHYPVDSTKTSDMLDYLEQDIGKGLDRGFSSFKIKIGGAAVNQDLERIAFCRKLIGPYRRLMVDAFCAYEADVIIPMAKKFEQYDIGFLEEPVALDDIPGCAYVAANVSMPVALGESHYTMAQFRDIINSKAARILQPDVAYVGGITGFMQYAGIAAYHGLRLAPHWCHDLSVQLALSIPQIRELEYMDQNSALFLIQKVIENPVTAKNGIVRAPEGAGHGLVLDEKAVERYLA” as the sequence, how does the “soluble on expression in E. coli” value read?
Its value is “soluble”.

With “MKIKSIEPTPSPNTMKVILTEELPAGKSNNYKPEQAEGAPLVIAEILKIDGVKGVYHVADFLAVERNARYDWKDILPQVRTAFGMESAESAEENRSDQESFGEVKVFVQMFSGIPMQVKLTDGEREERFGLPERFQQAILKLRSEASNVVFERAWKEQGVRFGDFDEIGHDVTEELQAAYSDERLKRLTEAAAQGKGEAKQAVQRKAYKVTLDMLDDEDWKKRYAHLEQMDPKEEDIPVLQKALDDPKVSIRRQAVVYLGMIETPDVLPLLYKALEDKAVSVRRTAGDCLSDIGDPQAIPAMIKSLSDSSKLVRWRAAMFLYEVGDESAIEALRAAEDDPEFEVSLQVKMALERIEHGEEAKGSVWKQMTESRKKGE” as the sequence, how does the “soluble on expression in E. coli” value read?
Its value is “soluble”.
